The record followed here is the supplement of paper PMC9112550, “Optimization of the antimicrobial peptide Bac7 by deep mutational scanning” (BMC Biology, 2022).

The test system of the series is Escherichia coli TOP10. In words: shrunken log2 fold change of peptide-encoding DNA abundance (4.5 h post-induction vs induction); higher = less antimicrobial activity (less host growth inhibition). Conditions: time post-induction: 4.5 h; library: site-saturation at positions 5, 18, 19, 20.
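Also: peptides expressed intracellularly from a pBAD plasmid library in pooled LB shake-flask culture, induced with 0.3% L-arabinose, DNA abundance read by NGS, three biological replicates, DESeq2 with apeglm shrinkage.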

In the case of RRIRWRPPRLPRPRPRPLKSPRP, the “shrunken log2 fold change” value was 0.183.

In the case of RRIRTRPPRLPRPRPRPIIYPRP, the “shrunken log2 fold change” value is -0.216.

Regarding RRIRGRPPRLPRPRPRPLGFPRP, the “shrunken log2 fold change” value was found to be 0.755.

With RRIRGRPPRLPRPRPRPHPLPRP, the “shrunken log2 fold change” value was determined as 0.101.

Turning to RRIRNRPPRLPRPRPRPINNPRP, the “shrunken log2 fold change” value is -0.652.

Regarding RRIRDRPPRLPRPRPRPWMVPRP, the “shrunken log2 fold change” value is 0.333.

RRIRRRPPRLPRPRPRPWPQPRP: the “shrunken log2 fold change” value was found to be 0.101.

Turning to RRIRFRPPRLPRPRPRPIYWPRP, the “shrunken log2 fold change” value is 0.0843.

Take RRIRSRPPRLPRPRPRPQRRPRP: the “shrunken log2 fold change” value was 0.21.

For the sequence RRIRCRPPRLPRPRPRPYKQPRP, the “shrunken log2 fold change” value was -0.211.

With RRIRLRPPRLPRPRPRPRKMPRP, the “shrunken log2 fold change” value came to 0.281.

For RRIRWRPPRLPRPRPRPCTDPRP, the “shrunken log2 fold change” value came out at 0.0992.

RRIRSRPPRLPRPRPRPIHAPRP: the “shrunken log2 fold change” value was -0.0213.

RRIRWRPPRLPRPRPRPFPRPRP: the “shrunken log2 fold change” value was 0.111.

RRIRWRPPRLPRPRPRPVWQPRP: the “shrunken log2 fold change” value was determined as 0.301.

RRIRQRPPRLPRPRPRPRELPRP: the “shrunken log2 fold change” value came to 0.0285.

Take RRIRDRPPRLPRPRPRPIQSPRP: the “shrunken log2 fold change” value was -0.0949.

Turning to RRIRQRPPRLPRPRPRPEFNPRP, the “shrunken log2 fold change” value was -0.0823.

As for RRIRARPPRLPRPRPRPLKCPRP, the “shrunken log2 fold change” value came to 0.381.

RRIRHRPPRLPRPRPRPDCFPRP: the “shrunken log2 fold change” value was 0.3.

With RRIRERPPRLPRPRPRPNWVPRP, the “shrunken log2 fold change” value was -0.0244.

RRIRYRPPRLPRPRPRPKHSPRP: the “shrunken log2 fold change” value is -0.875.

Take RRIRKRPPRLPRPRPRPRYYPRP: the “shrunken log2 fold change” value is -0.248.

RRIRERPPRLPRPRPRPMWWPRP: the “shrunken log2 fold change” value was -0.298.

As for RRIRFRPPRLPRPRPRPMSLPRP, the “shrunken log2 fold change” value is -0.142.

Regarding RRIRNRPPRLPRPRPRPDGIPRP, the “shrunken log2 fold change” value worked out at 0.0081.

As to RRIRERPPRLPRPRPRPMCDPRP, the “shrunken log2 fold change” value was -0.212.

As for RRIRVRPPRLPRPRPRPKTIPRP, the “shrunken log2 fold change” value was -0.26.

As for RRIRTRPPRLPRPRPRPLEWPRP, the “shrunken log2 fold change” value was found to be 0.178.

For the sequence RRIRSRPPRLPRPRPRPQFLPRP, the “shrunken log2 fold change” value was -0.394.

As to RRIRPRPPRLPRPRPRPYWNPRP, the “shrunken log2 fold change” value is -0.151.

As to RRIRCRPPRLPRPRPRPSKRPRP, the “shrunken log2 fold change” value is -0.12.

Take RRIRYRPPRLPRPRPRPETRPRP: the “shrunken log2 fold change” value stood at 0.0147.

For RRIRVRPPRLPRPRPRPIGGPRP, the “shrunken log2 fold change” value was 0.801.

For RRIRERPPRLPRPRPRPQNKPRP, the “shrunken log2 fold change” value is -0.64.

Regarding RRIRVRPPRLPRPRPRPLSSPRP, the “shrunken log2 fold change” value came out at 0.0511.

With RRIRWRPPRLPRPRPRPYETPRP, the “shrunken log2 fold change” value is -0.181.

For the sequence RRIRCRPPRLPRPRPRPSNCPRP, the “shrunken log2 fold change” value was -0.0679.

As to RRIRQRPPRLPRPRPRPKALPRP, the “shrunken log2 fold change” value was -0.0462.

Turning to RRIRLRPPRLPRPRPRPATNPRP, the “shrunken log2 fold change” value is -0.253.

As for RRIRVRPPRLPRPRPRPHPVPRP, the “shrunken log2 fold change” value is -0.201.

Take RRIRNRPPRLPRPRPRPNGCPRP: the “shrunken log2 fold change” value is -0.0605.

For RRIRGRPPRLPRPRPRPWICPRP, the “shrunken log2 fold change” value was -0.00439.

As to RRIRCRPPRLPRPRPRPWVGPRP, the “shrunken log2 fold change” value was -0.167.

For RRIRDRPPRLPRPRPRPKDMPRP, the “shrunken log2 fold change” value worked out at 0.0342.

With RRIRHRPPRLPRPRPRPFFKPRP, the “shrunken log2 fold change” value is -0.149.

In the case of RRIRWRPPRLPRPRPRPYHPPRP, the “shrunken log2 fold change” value is -1.08.

In the case of RRIRQRPPRLPRPRPRPLHYPRP, the “shrunken log2 fold change” value is -0.269.

RRIRVRPPRLPRPRPRPYGSPRP: the “shrunken log2 fold change” value was -0.409.

Regarding RRIRKRPPRLPRPRPRPFLLPRP, the “shrunken log2 fold change” value is -0.399.

In the case of RRIRCRPPRLPRPRPRPIWFPRP, the “shrunken log2 fold change” value amounted to 0.21.

With RRIRYRPPRLPRPRPRPDSIPRP, the “shrunken log2 fold change” value was -0.0267.

For RRIRPRPPRLPRPRPRPVDTPRP, the “shrunken log2 fold change” value is -0.592.

As to RRIRNRPPRLPRPRPRPQTQPRP, the “shrunken log2 fold change” value stood at 0.153.

For the sequence RRIRMRPPRLPRPRPRPPGAPRP, the “shrunken log2 fold change” value was found to be 2.06.

For the sequence RRIRKRPPRLPRPRPRPWYGPRP, the “shrunken log2 fold change” value is -0.188.

Consider RRIRERPPRLPRPRPRPWFCPRP, for which the “shrunken log2 fold change” value was -0.375.

Take RRIRKRPPRLPRPRPRPAICPRP: the “shrunken log2 fold change” value worked out at 0.0922.

For RRIRFRPPRLPRPRPRPETQPRP, the “shrunken log2 fold change” value is -0.0941.

In the case of RRIRSRPPRLPRPRPRPPDRPRP, the “shrunken log2 fold change” value worked out at 0.643.

For RRIRHRPPRLPRPRPRPAACPRP, the “shrunken log2 fold change” value was found to be 0.066.

Take RRIRWRPPRLPRPRPRPMGQPRP: the “shrunken log2 fold change” value amounted to 0.0149.

Consider RRIRQRPPRLPRPRPRPNVHPRP, for which the “shrunken log2 fold change” value was -0.258.

For RRIRTRPPRLPRPRPRPDIRPRP, the “shrunken log2 fold change” value was 0.0296.

On to RRIRPRPPRLPRPRPRPHLPPRP, for which the “shrunken log2 fold change” value was -0.126.

For RRIRPRPPRLPRPRPRPPWWPRP, the “shrunken log2 fold change” value turned out to be 0.842.

Take RRIRPRPPRLPRPRPRPMACPRP: the “shrunken log2 fold change” value is -0.161.

Turning to RRIRGRPPRLPRPRPRPTNQPRP, the “shrunken log2 fold change” value came out at 0.579.

In the case of RRIRRRPPRLPRPRPRPFIMPRP, the “shrunken log2 fold change” value is -0.251.

For the sequence RRIRCRPPRLPRPRPRPCNFPRP, the “shrunken log2 fold change” value was -0.0198.

Take RRIRTRPPRLPRPRPRPIELPRP: the “shrunken log2 fold change” value was -0.0636.

For the sequence RRIRMRPPRLPRPRPRPNMQPRP, the “shrunken log2 fold change” value came to 0.0607.

Regarding RRIRVRPPRLPRPRPRPVDVPRP, the “shrunken log2 fold change” value is -0.106.

With RRIRQRPPRLPRPRPRPQWFPRP, the “shrunken log2 fold change” value is 0.0435.

With RRIRYRPPRLPRPRPRPAFLPRP, the “shrunken log2 fold change” value was -0.365.

RRIRTRPPRLPRPRPRPTWIPRP: the “shrunken log2 fold change” value was -0.0425.

As for RRIRERPPRLPRPRPRPLSWPRP, the “shrunken log2 fold change” value came out at 0.04.

RRIRQRPPRLPRPRPRPEMTPRP: the “shrunken log2 fold change” value turned out to be 0.0231.

As to RRIRGRPPRLPRPRPRPMTNPRP, the “shrunken log2 fold change” value was determined as 0.835.

In the case of RRIRFRPPRLPRPRPRPSYAPRP, the “shrunken log2 fold change” value is -0.116.

RRIRFRPPRLPRPRPRPRDPPRP: the “shrunken log2 fold change” value is 0.553.

For RRIRFRPPRLPRPRPRPAWTPRP, the “shrunken log2 fold change” value was -0.0896.

In the case of RRIRARPPRLPRPRPRPVMCPRP, the “shrunken log2 fold change” value was 0.0832.

Consider RRIRFRPPRLPRPRPRPCSDPRP, for which the “shrunken log2 fold change” value is -0.119.

Regarding RRIRFRPPRLPRPRPRPDWEPRP, the “shrunken log2 fold change” value was -0.169.

On to RRIRNRPPRLPRPRPRPILAPRP, for which the “shrunken log2 fold change” value is -0.264.

For RRIRRRPPRLPRPRPRPCPKPRP, the “shrunken log2 fold change” value was -0.0745.

As for RRIRERPPRLPRPRPRPLGPPRP, the “shrunken log2 fold change” value was found to be 0.099.

For the sequence RRIRCRPPRLPRPRPRPGRSPRP, the “shrunken log2 fold change” value was 0.0654.

For RRIRNRPPRLPRPRPRPIKFPRP, the “shrunken log2 fold change” value is -0.165.

On to RRIRYRPPRLPRPRPRPSGSPRP, for which the “shrunken log2 fold change” value is -0.0607.

As for RRIRKRPPRLPRPRPRPLNDPRP, the “shrunken log2 fold change” value is -0.0546.

As for RRIRHRPPRLPRPRPRPADMPRP, the “shrunken log2 fold change” value was 0.0208.

In the case of RRIRNRPPRLPRPRPRPHQNPRP, the “shrunken log2 fold change” value is -0.239.

For RRIRWRPPRLPRPRPRPLGKPRP, the “shrunken log2 fold change” value is 0.136.

Regarding RRIRARPPRLPRPRPRPEAPPRP, the “shrunken log2 fold change” value is 1.11.

As to RRIRCRPPRLPRPRPRPPGDPRP, the “shrunken log2 fold change” value was 0.346.

For RRIRFRPPRLPRPRPRPQFPPRP, the “shrunken log2 fold change” value was -0.16.

Regarding RRIRGRPPRLPRPRPRPMQWPRP, the “shrunken log2 fold change” value is -0.0537.

Take RRIRSRPPRLPRPRPRPYAHPRP: the “shrunken log2 fold change” value is -0.131.

Turning to RRIRTRPPRLPRPRPRPCIFPRP, the “shrunken log2 fold change” value was -0.233.

For RRIRKRPPRLPRPRPRPAYCPRP, the “shrunken log2 fold change” value came to 0.0801.

RRIRVRPPRLPRPRPRPISAPRP: the “shrunken log2 fold change” value came out at 1.18.

On to RRIRSRPPRLPRPRPRPSKSPRP, for which the “shrunken log2 fold change” value was -0.361.

As for RRIRHRPPRLPRPRPRPLVWPRP, the “shrunken log2 fold change” value was 0.482.

As to RRIRIRPPRLPRPRPRPQKEPRP, the “shrunken log2 fold change” value was -0.0177.

On to RRIRWRPPRLPRPRPRPLPTPRP, for which the “shrunken log2 fold change” value is 0.463.

For the sequence RRIRNRPPRLPRPRPRPYFMPRP, the “shrunken log2 fold change” value was -1.09.

Consider RRIRNRPPRLPRPRPRPQHHPRP, for which the “shrunken log2 fold change” value was -0.432.

For RRIRNRPPRLPRPRPRPLEMPRP, the “shrunken log2 fold change” value was -0.0434.

Turning to RRIRLRPPRLPRPRPRPTGTPRP, the “shrunken log2 fold change” value turned out to be 0.104.

As for RRIRYRPPRLPRPRPRPLKVPRP, the “shrunken log2 fold change” value was -0.0432.

With RRIRWRPPRLPRPRPRPGVYPRP, the “shrunken log2 fold change” value came out at 0.221.

For RRIRSRPPRLPRPRPRPWWSPRP, the “shrunken log2 fold change” value was -0.237.

Regarding RRIRTRPPRLPRPRPRPDWDPRP, the “shrunken log2 fold change” value turned out to be 0.223.

On to RRIRFRPPRLPRPRPRPQVMPRP, for which the “shrunken log2 fold change” value is -0.265.

Turning to RRIRTRPPRLPRPRPRPGKKPRP, the “shrunken log2 fold change” value is -0.0783.

Regarding RRIRQRPPRLPRPRPRPTVKPRP, the “shrunken log2 fold change” value is -0.096.

For the sequence RRIRQRPPRLPRPRPRPKCHPRP, the “shrunken log2 fold change” value is -0.0268.

With RRIRIRPPRLPRPRPRPIVGPRP, the “shrunken log2 fold change” value is 0.00911.

In the case of RRIRMRPPRLPRPRPRPAYFPRP, the “shrunken log2 fold change” value is -0.197.

Take RRIRRRPPRLPRPRPRPCIIPRP: the “shrunken log2 fold change” value was -0.474.

In the case of RRIRGRPPRLPRPRPRPVSPPRP, the “shrunken log2 fold change” value amounted to 0.101.

Take RRIRHRPPRLPRPRPRPRKDPRP: the “shrunken log2 fold change” value was -0.0956.

As to RRIRGRPPRLPRPRPRPIHEPRP, the “shrunken log2 fold change” value was -0.135.
